Source: the supplement of paper PMC9112550, “Optimization of the antimicrobial peptide Bac7 by deep mutational scanning” (BMC Biology, 2022)

These sequences were tested on Escherichia coli TOP10 (assay: shrunken log2 fold change of peptide-encoding DNA abundance (4.5 h post-induction vs induction); higher = less antimicrobial activity (less host growth inhibition)). Conditions: time post-induction: 4.5 h; library: site-saturation at positions 5, 18, 19, 20.
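Note: peptides expressed intracellularly from a pBAD plasmid library in pooled LB shake-flask culture, induced with 0.3% L-arabinose, DNA abundance read by NGS, three biological replicates, DESeq2 with apeglm shrinkage.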

Question: For RRIRDRPPRLPRPRPRPIIPPRP, which “shrunken log2 fold change” value is on record?
Answer: -0.644

Question: With RRIRDRPPRLPRPRPRPIIYPRP as the sequence, how does the “shrunken log2 fold change” value read?
Answer: -0.313

Question: RRIRDRPPRLPRPRPRPILEPRP was tested. Which “shrunken log2 fold change” value did it give?
Answer: -0.0842

Question: How did the “shrunken log2 fold change” value turn out when RRIRDRPPRLPRPRPRPILGPRP was run?
Answer: -0.0116

Question: For RRIRDRPPRLPRPRPRPILTPRP, which “shrunken log2 fold change” value is on record?
Answer: -0.0144

Question: Which “shrunken log2 fold change” value does the source give for RRIRDRPPRLPRPRPRPIMKPRP here?
Answer: -0.195

Question: For RRIRDRPPRLPRPRPRPIMMPRP, which “shrunken log2 fold change” value is on record?
Answer: -0.232

Question: RRIRDRPPRLPRPRPRPINDPRP was tested. Which “shrunken log2 fold change” value did it give?
Answer: 0.0753

Question: For RRIRDRPPRLPRPRPRPINPPRP, which “shrunken log2 fold change” value is on record?
Answer: -0.277

Question: RRIRDRPPRLPRPRPRPINRPRP was tested. Which “shrunken log2 fold change” value did it give?
Answer: -0.104

Question: Which “shrunken log2 fold change” value does the source give for RRIRDRPPRLPRPRPRPIPCPRP here?
Answer: -0.0802

Question: For RRIRDRPPRLPRPRPRPIPFPRP, which “shrunken log2 fold change” value is on record?
Answer: -0.306

Question: How did the “shrunken log2 fold change” value turn out when RRIRDRPPRLPRPRPRPIQGPRP was run?
Answer: 0.00911

Question: Which “shrunken log2 fold change” value does the source give for RRIRDRPPRLPRPRPRPIQSPRP here?
Answer: -0.0949

Question: For RRIRDRPPRLPRPRPRPIRPPRP, which “shrunken log2 fold change” value is on record?
Answer: -0.0136

Question: RRIRDRPPRLPRPRPRPIVEPRP was tested. Which “shrunken log2 fold change” value did it give?
Answer: 0.0518

Question: Which “shrunken log2 fold change” value does the source give for RRIRDRPPRLPRPRPRPIVKPRP here?
Answer: 0.0295

Question: Which “shrunken log2 fold change” value does the source give for RRIRDRPPRLPRPRPRPIYDPRP here?
Answer: -0.0423

Question: How did the “shrunken log2 fold change” value turn out when RRIRDRPPRLPRPRPRPIYLPRP was run?
Answer: 2.37

Question: Which “shrunken log2 fold change” value does the source give for RRIRDRPPRLPRPRPRPIYQPRP here?
Answer: -0.431

Question: RRIRDRPPRLPRPRPRPKAIPRP was tested. Which “shrunken log2 fold change” value did it give?
Answer: -0.0326

Question: With RRIRDRPPRLPRPRPRPKCMPRP as the sequence, how does the “shrunken log2 fold change” value read?
Answer: -0.153

Question: With RRIRDRPPRLPRPRPRPKDMPRP as the sequence, how does the “shrunken log2 fold change” value read?
Answer: 0.0342

Question: With RRIRDRPPRLPRPRPRPKDSPRP as the sequence, how does the “shrunken log2 fold change” value read?
Answer: -0.0525

Question: With RRIRDRPPRLPRPRPRPKDWPRP as the sequence, how does the “shrunken log2 fold change” value read?
Answer: 0.601

Question: How did the “shrunken log2 fold change” value turn out when RRIRDRPPRLPRPRPRPKEFPRP was run?
Answer: 0.0479

Question: How did the “shrunken log2 fold change” value turn out when RRIRDRPPRLPRPRPRPKEPPRP was run?
Answer: 0.00859

Question: With RRIRDRPPRLPRPRPRPKEVPRP as the sequence, how does the “shrunken log2 fold change” value read?
Answer: 0.174

Question: For RRIRDRPPRLPRPRPRPKFAPRP, which “shrunken log2 fold change” value is on record?
Answer: -0.0673

Question: RRIRDRPPRLPRPRPRPKFMPRP was tested. Which “shrunken log2 fold change” value did it give?
Answer: -0.191

Question: RRIRDRPPRLPRPRPRPKGSPRP was tested. Which “shrunken log2 fold change” value did it give?
Answer: -0.145

Question: Which “shrunken log2 fold change” value does the source give for RRIRDRPPRLPRPRPRPKKRPRP here?
Answer: 0.403

Question: Which “shrunken log2 fold change” value does the source give for RRIRDRPPRLPRPRPRPKMFPRP here?
Answer: 0.00408

Question: For RRIRDRPPRLPRPRPRPKNRPRP, which “shrunken log2 fold change” value is on record?
Answer: 0.0678

Question: With RRIRDRPPRLPRPRPRPKPLPRP as the sequence, how does the “shrunken log2 fold change” value read?
Answer: 0.101

Question: For RRIRDRPPRLPRPRPRPKQNPRP, which “shrunken log2 fold change” value is on record?
Answer: 0.277

Question: For RRIRDRPPRLPRPRPRPKVMPRP, which “shrunken log2 fold change” value is on record?
Answer: -0.054

Question: RRIRDRPPRLPRPRPRPKWTPRP was tested. Which “shrunken log2 fold change” value did it give?
Answer: 0.0796

Question: Which “shrunken log2 fold change” value does the source give for RRIRDRPPRLPRPRPRPKYGPRP here?
Answer: -0.0519

Question: Which “shrunken log2 fold change” value does the source give for RRIRDRPPRLPRPRPRPLCAPRP here?
Answer: 0.783

Question: RRIRDRPPRLPRPRPRPLDKPRP was tested. Which “shrunken log2 fold change” value did it give?
Answer: -0.0615

Question: With RRIRDRPPRLPRPRPRPLESPRP as the sequence, how does the “shrunken log2 fold change” value read?
Answer: 0.258

Question: With RRIRDRPPRLPRPRPRPLETPRP as the sequence, how does the “shrunken log2 fold change” value read?
Answer: 0.73

Question: How did the “shrunken log2 fold change” value turn out when RRIRDRPPRLPRPRPRPLEWPRP was run?
Answer: 0.421

Question: For RRIRDRPPRLPRPRPRPLFFPRP, which “shrunken log2 fold change” value is on record?
Answer: 0.648

Question: For RRIRDRPPRLPRPRPRPLGFPRP, which “shrunken log2 fold change” value is on record?
Answer: -0.0377

Question: With RRIRDRPPRLPRPRPRPLGPPRP as the sequence, how does the “shrunken log2 fold change” value read?
Answer: 0.191

Question: RRIRDRPPRLPRPRPRPLIAPRP was tested. Which “shrunken log2 fold change” value did it give?
Answer: 0.468

Question: With RRIRDRPPRLPRPRPRPLIWPRP as the sequence, how does the “shrunken log2 fold change” value read?
Answer: 0.176

Question: For RRIRDRPPRLPRPRPRPLKDPRP, which “shrunken log2 fold change” value is on record?
Answer: -0.225

Question: Which “shrunken log2 fold change” value does the source give for RRIRDRPPRLPRPRPRPLMIPRP here?
Answer: 0.072

Question: For RRIRDRPPRLPRPRPRPLPAPRP, which “shrunken log2 fold change” value is on record?
Answer: 0.574

Question: For RRIRDRPPRLPRPRPRPLPSPRP, which “shrunken log2 fold change” value is on record?
Answer: -0.0341

Question: For RRIRDRPPRLPRPRPRPLRKPRP, which “shrunken log2 fold change” value is on record?
Answer: 1.36

Question: For RRIRDRPPRLPRPRPRPLSPPRP, which “shrunken log2 fold change” value is on record?
Answer: -0.0511

Question: Which “shrunken log2 fold change” value does the source give for RRIRDRPPRLPRPRPRPLSTPRP here?
Answer: 0.377

Question: How did the “shrunken log2 fold change” value turn out when RRIRDRPPRLPRPRPRPLWKPRP was run?
Answer: 0.0179

Question: With RRIRDRPPRLPRPRPRPLWSPRP as the sequence, how does the “shrunken log2 fold change” value read?
Answer: -0.0446

Question: RRIRDRPPRLPRPRPRPLWVPRP was tested. Which “shrunken log2 fold change” value did it give?
Answer: -0.0158

Question: How did the “shrunken log2 fold change” value turn out when RRIRDRPPRLPRPRPRPMARPRP was run?
Answer: 0.0954

Question: Which “shrunken log2 fold change” value does the source give for RRIRDRPPRLPRPRPRPMAVPRP here?
Answer: 0.417

Question: With RRIRDRPPRLPRPRPRPMCAPRP as the sequence, how does the “shrunken log2 fold change” value read?
Answer: 0.0829

Question: With RRIRDRPPRLPRPRPRPMCHPRP as the sequence, how does the “shrunken log2 fold change” value read?
Answer: 0.216

Question: RRIRDRPPRLPRPRPRPMCTPRP was tested. Which “shrunken log2 fold change” value did it give?
Answer: -0.0135

Question: How did the “shrunken log2 fold change” value turn out when RRIRDRPPRLPRPRPRPMEPPRP was run?
Answer: 0.127

Question: With RRIRDRPPRLPRPRPRPMEVPRP as the sequence, how does the “shrunken log2 fold change” value read?
Answer: 0.142

Question: With RRIRDRPPRLPRPRPRPMGYPRP as the sequence, how does the “shrunken log2 fold change” value read?
Answer: -0.115

Question: Which “shrunken log2 fold change” value does the source give for RRIRDRPPRLPRPRPRPMKDPRP here?
Answer: -0.0395

Question: With RRIRDRPPRLPRPRPRPMKIPRP as the sequence, how does the “shrunken log2 fold change” value read?
Answer: -0.0804

Question: RRIRDRPPRLPRPRPRPMMFPRP was tested. Which “shrunken log2 fold change” value did it give?
Answer: 0.43

Question: RRIRDRPPRLPRPRPRPMMNPRP was tested. Which “shrunken log2 fold change” value did it give?
Answer: -0.00862

Question: How did the “shrunken log2 fold change” value turn out when RRIRDRPPRLPRPRPRPMMRPRP was run?
Answer: 0.763

Question: How did the “shrunken log2 fold change” value turn out when RRIRDRPPRLPRPRPRPMNEPRP was run?
Answer: 0.202

Question: For RRIRDRPPRLPRPRPRPMNLPRP, which “shrunken log2 fold change” value is on record?
Answer: -0.1

Question: Which “shrunken log2 fold change” value does the source give for RRIRDRPPRLPRPRPRPMPSPRP here?
Answer: 0.026
